Here are results for 2 molecules from PMC7046344.

For one assay, the target named is Spn-F-FLAG (UniProt Q9V9Y9). The assay can be described thus: co-immunoprecipitation (IP anti-FLAG, IB myc, band ratio by ImageJ). The settings on record: lysates of S2 cells co-expressing SpnF-FLAG and myc-Rab11; parent: 1.
The next assay has as its target T1, Spn-F-FLAG, Q9V9Y9.
T1 chain: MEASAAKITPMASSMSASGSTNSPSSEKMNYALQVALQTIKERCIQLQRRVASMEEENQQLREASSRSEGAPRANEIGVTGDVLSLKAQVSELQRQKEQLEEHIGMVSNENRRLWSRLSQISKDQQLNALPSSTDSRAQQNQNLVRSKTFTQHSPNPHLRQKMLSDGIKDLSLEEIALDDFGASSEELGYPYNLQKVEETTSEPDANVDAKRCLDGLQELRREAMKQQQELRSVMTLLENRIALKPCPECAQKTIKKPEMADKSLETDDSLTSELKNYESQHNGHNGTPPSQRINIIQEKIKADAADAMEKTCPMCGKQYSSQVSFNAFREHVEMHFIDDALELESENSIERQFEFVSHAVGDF
Described as above. The settings on record: chain shown with the change; lysates of S2 cells co-expressing SpnF-FLAG and myc-Rab11; parent: 1.

As to myc-Rab11 (from UniProt O18335) CA, the other: myc/FLAG ratio in the assay with Spn-F-FLAG stood at 0.14.

B1: myc-Rab11, O18335 S25N (protein)
chain: MGAREDEYDYLFKVVLIGDSGVGKNNLLSRFTRNEFNLESKSTIGVEFATRSIEVDGKTIKAQIWDTAGQERYRAITSAYYRGAVGALLVYDIAKHLTYENVERWLRELRDHADQNIVIMLVGNKSDLRHLRSVPTDEAKLFAERNGLSFIETSALDSTNVETAFQNILTEIYRIVSQKQIRDPPEGDVIRPSNVEPIDVKPTVTADVRKQCCQ
With B1, in the assay with Spn-F-FLAG, Q9V9Y9, the other: myc/FLAG ratio is 1.07.
